Measurements from doi:10.1101/2020.05.29.123786.
“And” between values parts separate entries of the source, which are not always exact repeats. Equal entries are not always repeated.

T1: PilQ from Pseudomonas aeruginosa (type IVa pilus secretin) (Pseudomonas aeruginosa), P34750
T1 chain: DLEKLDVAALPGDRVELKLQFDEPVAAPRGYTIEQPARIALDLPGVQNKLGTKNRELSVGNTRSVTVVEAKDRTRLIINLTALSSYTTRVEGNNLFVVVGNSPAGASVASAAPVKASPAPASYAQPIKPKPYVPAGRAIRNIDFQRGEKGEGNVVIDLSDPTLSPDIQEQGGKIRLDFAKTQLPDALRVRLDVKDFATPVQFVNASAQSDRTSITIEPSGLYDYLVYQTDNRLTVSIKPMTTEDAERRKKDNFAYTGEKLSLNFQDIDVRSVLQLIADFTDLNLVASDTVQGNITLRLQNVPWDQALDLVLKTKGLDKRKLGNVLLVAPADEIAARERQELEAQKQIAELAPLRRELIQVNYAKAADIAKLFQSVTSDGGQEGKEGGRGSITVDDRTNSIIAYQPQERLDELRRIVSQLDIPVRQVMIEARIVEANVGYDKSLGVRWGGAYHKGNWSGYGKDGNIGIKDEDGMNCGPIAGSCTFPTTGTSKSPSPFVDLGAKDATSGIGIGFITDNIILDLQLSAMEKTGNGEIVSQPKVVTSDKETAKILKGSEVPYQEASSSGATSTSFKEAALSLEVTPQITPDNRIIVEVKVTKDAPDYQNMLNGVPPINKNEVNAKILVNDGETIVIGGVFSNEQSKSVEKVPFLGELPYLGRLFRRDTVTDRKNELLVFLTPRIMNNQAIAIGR

B1: PilQ from Pseudomonas aeruginosa (type IVa pilus secretin), P34750 25-714 (natural protein)
chain: T1 chain

Key:
Assay in all cases: cryo-EM structure
[1] = molecular target: PilQ from Pseudomonas aeruginosa (type IVa pilus secretin) (Pseudomonas aeruginosa) (UniProt P34750)
[2] = molecular target: TsaP from Pseudomonas aeruginosa (Pseudomonas aeruginosa)
[3] = molecular target: T1, PilQ from Pseudomonas aeruginosa (type …); conditions: remark: other sources report otherwise

Row | Molecule | stoichiometry N (TsaP per PilQ) [1] | stoichiometry N [2] | stoichiometry N [3]
1 | TsaP from Pseudomonas aeruginosa (natural protein) | 0.5 | 7 | –
2 | B1 | – | – | 14 and 15
